# Measurements taken from patent US20240270846A1 (published 2024).
# Changes are numbered by the printed parent chain.
# B1: CE115HA000 Y100aL one-arm antibody (antibody, human IgG1, kappa, L234A L235A, N297A, name in Kabat numbering)
# heavy: QVQLVESGGGVVQPGRSLRLSCAASGFTFSNAWMHWVRQAPGKGLEWVAQIKAKSNNYATYYAESVKGRFTISRDDSKNSLYLQMNSLKTEDTAVYYCRYVHYGAYLGVDAWGQGTTVTVSSASTKGPSVFPLAPSSKSTSGGTAALGCLVKDYFPEPVTVSWNSGALTSGVHTFPAVLQSSGLYSLSSVVTVPSSSLGTQTYICNVNHKPSNTKVDKKVEPKSCDKTHTCPPCPAPEAAGGPSVFLFPPKPKDTLMISRTPEVTCVVVDVSHEDPEVKFNWYVDGVEVHNAKTKPREEQYASTYRVVSVLTVLHQDWLNGKEYKCKVSNKALPAPIEKTISKAKGQPREPQVYTLPPSRCELTKNQVSLSCAVKGFYPSDIAVEWESNGQPENNYKTTPPVLDSDGSFFLVSKLTVDKSRWQQGNVFSCSVMHEALHNHYTQKSLSLSPDYKDDDDK
# chain: EPKSSDKTHTCPPCPAPELLGGPSVFLFPPKPKDTLMISRTPEVTCVVVDVSHEDPEVKFNWYVDGVEVHNAKTKPREEQYNSTYRVVSVLTVLHQDWLNGKEYKCKVSNKALPAPIEKTISKAKGQPREPQVCTLPPSRDELTKNQVSLWCLVKGFYPSDIAVEWESNGQPENNYKTTPPVLDSDGSFFLYSKLTVDKSRWQQGNVFSCSVMHEALHNRYTQKSLSLSP
# light: DIVMTQSPLSLPVTPGEPASISCRSSQSLVHSNRNTYLHWYQQKPGQAPRLLIYKVSNRFSGVPDRFSGSGSGTDFTLKISRVEAEDVGVYYCGQGTQVPYTFGQGTKLEIKRTVAAPSVFIFPPSDEQLKSGTASVVCLLNNFYPREAKVQWKVDNALQSGNSQESVTEQDSKDSTYSLSSTLTLSKADYEKHKVYACEVTHQGLSSPVTKSFNRGEC
# notes: one-arm antibody
# B2: CE115HA000 Y100aS one-arm antibody (antibody, human IgG1, kappa, L234A L235A, N297A, name in Kabat numbering)
# heavy: B1 heavy with L107S
# chain: B1 chain
# light: B1 light
# notes: one-arm antibody
# B3: CE115HA000 Y100aQ one-arm antibody (antibody, human IgG1, kappa, L234A L235A, N297A, name in Kabat numbering)
# heavy: B1 heavy with L107Q
# chain: B1 chain
# light: B1 light
# notes: one-arm antibody
# B4: GPC3 ERY22-B (bispecific antibody, human IgG1, kappa, L234A L235A, N297A)
# heavy 1: DIVMTQSPLSLPVTPGEPASISCRSSQSLVHSNRNTYLHWYQQKPGQAPRLLIYKVSNRFSGVPDRFSGSGSGTDFTLKISRVEAEDVGVYYCSQNTHVPPTFGQGTKLEIKSSASTKGPSVFPLAPSSKSTSGGTAALGCLVKDYFPEPVTVSWNSGALTSGVHTFPAVLQSSGLYSLSSVVTVPSSSLGTQTYICNVNHKPSNTKVDKKVEPKSCDKTHTCPPCPAPEAAGGPSVFLFPPKPKDTLMISRTPEVTCVVVDVSHEDPEVKFNWYVDGVEVHNAKTKPREEQYASTYRVVSVLTVLHQDWLNGKEYKCKVSNKALPAPIEKTISKAKGQPREPQVCTLPPSRDELTKNQVSLWCLVKGFYPSDIAVEWESNGQPENNYKTTPPVLDSDGSFFLYSKLTVDKSRWQQGNVFSCSVMHEALHNHYTQKSLSLSPHHHHHHHH
# light 1: QVQLVQSGAEVKKPGASVKVSCKASGYTFTDYEMHWIRQPPGQGLEWIGAIDPKTGDTAYSQKFKGRVTLTADKSTSTAYMELSSLTSEDTAVYYCTRFYSYTYWGQGTLVTVSSASVAAPSVFIFPPSDEQLKSGTASVVCLLNNFYPREAKVQWKVDNALQSGNSQESVTEQDSKDSTYSLSSTLTLSKADYEKHKVYACEVTHQGLSSPVTKSFNRGEC
# heavy 2: QVQLQQWGAGLLKPSETLSLTCAVYGGSFSGYYWSWIRQSPEKGLEWIGEINHGGYVTYNPSLESRVTISVDTSKNQFSLKLSSVTAADTAVYYCARDYGPGNYDWYFDLWGRGTLVTVSSASTKGPSVFPLAPSSKSTSGGTAALGCLVKDYFPEPVTVSWNSGALTSGVHTFPAVLQSSGLYSLSSVVTVPSSSLGTQTYICNVNHKPSNTKVDKKVEPKSCDKTHTCPPCPAPEAAGGPSVFLFPPKPKDTLMISRTPEVTCVVVDVSHEDPEVKFNWYVDGVEVHNAKTKPREEQYASTYRVVSVLTVLHQDWLNGKEYKCKVSNKALPAPIEKTISKAKGQPREPQVYTLPPSRCELTKNQVSLSCAVKGFYPSDIAVEWESNGQPENNYKTTPPVLDSDGSFFLVSKLTVDKSRWQQGNVFSCSVMHEALHNHYTQKSLSLSP
# light 2: not shown
# B5: GPC3 ERY22-dBBDu_186/L106 (bispecific antibody, human IgG1, kappa, L234A L235A, N297A)
# heavy 1: B4 heavy 1
# light 1: B4 light 1
# heavy 2: QVQLVESGGGLVQPGRSLRLSCAASGFTFSNAWMHWVRQAPGKGLEWVAQIKDRSNQYATYYAPSVKGRFTISRDDSKNSIYLQMNSLKTEDTAVYYCHYVHYAQASTVLPAFGVDAWGQGTTVTVSSASTKGPSVFPLAPSSKSTSGGTAALGCLVKDYFPEPVTVSWNSGALTSGVHTFPAVLQSSGLYSLSSVVTVPSSSLGTQTYICNVNHKPSNTKVDKKVEPKSCDKTHTCPPCPAPEAAGGPSVFLFPPKPKDTLMISRTPEVTCVVVDVSHEDPEVKFNWYVDGVEVHNAKTKPREEQYASTYRVVSVLTVLHQDWLNGKEYKCKVSNKALPAPIEKTISKAKGQPREPQVYTLPPSRCELTKNQVSLSCAVKGFYPSDIAVEWESNGQPENNYKTTPPVLDSDGSFFLVSKLTVDKSRWQQGNVFSCSVMHEALHNHYTQKSLSLSPDYKDDDDK
# light 2: DIVMTQSPLSLPVTPGEPASISCSTSEELLHINRFIFLHWYQQKPGQAPRLLIYKVANRFMGVPDRFSGSGSGTDFTLKISRVEAEDVGVYYCAQGSQVPFTFGQGTKLEIKRTVAAPSVFIFPPSDEQLKSGTASVVCLLNNFYPREAKVQWKVDNALQSGNSQESVTEQDSKDSTYSLSSTLTLSKADYEKHKVYACEVTHQGLSSPVTKSFNRGEC
# B6: GPC3 ERY22-dBBDu_186/L096 (bispecific antibody, human IgG1, kappa, L234A L235A, N297A)
# heavy 1: B4 heavy 1
# light 1: B4 light 1
# heavy 2: B5 heavy 2
# light 2: B5 light 2 with S24R, E27Q, L30V, F35Y, A57Y, M61Q, S97T, Q98S, F101Y
# B7: GPC3 ERY22-dBBDu_167/L091 (bispecific antibody, human IgG1, kappa, L234A L235A, N297A)
# heavy 1: B4 heavy 1
# light 1: B4 light 1
# heavy 2: B5 heavy 2 with R54K, S55G, Q57L, T60A, Q105S, S107G, T108G, V109G, A112G
# light 2: B1 light with R24S, S25A, Q27E, V30L, S32N, N35H, K55R, S61N, Y101F
# B8: GPC3 ERY22-dBBDu_186/L098 (bispecific antibody, human IgG1, kappa, L234A L235A, N297A)
# heavy 1: B4 heavy 1
# light 1: B4 light 1
# heavy 2: B5 heavy 2
# light 2: B5 light 2 with S24A, T25A, L30V, F35Y, A57S, M61I
# B9: GPC3 ERY22-dBBDu_189/L119 (bispecific antibody, human IgG1, kappa, L234A L235A, N297A)
# heavy 1: B4 heavy 1
# light 1: B4 light 1
# heavy 2: B5 heavy 2 with V48I, T108S, V109L, A112S
# light 2: B5 light 2 with S24T, T25A, E27Q, L30V, A57S, M61I
# B10: GPC3 ERY22-dBBDu_183/L072 (bispecific antibody, human IgG1, kappa, L234A L235A, N297A)
# heavy 1: B4 heavy 1
# light 1: B4 light 1
# heavy 2: B5 heavy 2 with R54K, S55G, Q57A, T60A, Q105S
# light 2: B1 light with R24Q, S25A, S28E, S32M, S61P, G94A, Q98S, Y101F
# B11: GPC3 ERY22-dBBDu_189/L116 (bispecific antibody, human IgG1, kappa, L234A L235A, N297A)
# heavy 1: B4 heavy 1
# light 1: B4 light 1
# heavy 2: B5 heavy 2 with V48I, T108S, V109L, A112S
# light 2: B5 light 2 with T25S, E27Q, L30V, I32A, F35Q, F37Y, M61P, S97T
# B12: GPC3 ERY22-dBBDu_183/L063 (bispecific antibody, human IgG1, kappa, L234A L235A, N297A)
# heavy 1: B4 heavy 1
# light 1: B4 light 1
# heavy 2: B5 heavy 2 with R54K, S55G, Q57A, T60A, Q105S
# light 2: B1 light with S28E, S32T, N35H, S61P, G94A, Y101F
# Molecular target: T1, CD3 epsilon homodimer protein (UniProt P07766 23-126)
# T1 construct: Construct of the homodimer protein is not described; also called CD3 (CD3 epsilon)
# Assay: SPR (Biacore T200), CD3 epsilon homodimer on CM4 chip, one-arm antibody as analyte; ratio to unaltered CE115HA000;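 further: surface plasmon resonance run at 25 °C with HBS-EP+ as running buffer, CD3 epsilon homodimer attached by amine coupling, antibody passed over as analyte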
# T1 sequence (P07766 23-126): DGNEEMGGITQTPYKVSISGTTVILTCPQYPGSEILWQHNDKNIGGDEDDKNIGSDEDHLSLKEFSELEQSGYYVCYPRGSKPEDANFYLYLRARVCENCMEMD
row,KD ratio (KD value of CE115HA000/KD value of the altered form),Binder
1,0.57,B1
2,0.59,B2
3,0.51,B3

# Molecular target: human CD137 expressed constitutively on the B cell strain HDLM-2 (human, UniProt Q07011 24-255)
# Assay: cell-based or functional assay
# Sequence of human CD137 expressed constitutively on the B cell strain HDLM-2 (Q07011 24-255): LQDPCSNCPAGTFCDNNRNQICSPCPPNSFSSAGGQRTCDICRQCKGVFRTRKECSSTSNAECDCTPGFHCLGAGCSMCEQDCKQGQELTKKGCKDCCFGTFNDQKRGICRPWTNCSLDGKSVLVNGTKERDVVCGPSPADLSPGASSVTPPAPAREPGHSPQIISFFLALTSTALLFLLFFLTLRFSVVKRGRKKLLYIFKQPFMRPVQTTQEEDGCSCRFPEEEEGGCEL
"Agonistic activity compared to B, antibody 6 µg/mL [%]","Agonistic activity compared to B, antibody 30 µg/mL [%]","Agonistic activity compared to Ctrl, antibody 6 µg/mL [%]","Agonistic activity compared to Ctrl, antibody 30 µg/mL [%]","hIL-6 (pg/mL), antibody 6 µg/mL [pg/mL]","hIL-6 (pg/mL), antibody 30 µg/mL [pg/mL]",Binder
100,100,347,380,4520,4340,B4
13.2,19.4,45.8,73.6,1480,1570,B5
19,24.2,66.1,91.7,1680,1740,B6
-2.21,1.1,-7.68,4.19,935,944,B7
13.9,24.6,48.3,93.5,1500,1750,B8
6.92,20.4,24,77.3,1260,1610,B9
3.21,15.8,11.1,59.8,1130,1450,B10
8.28,19.2,28.7,72.9,1300,1570,B11
-1.27,6.51,-4.41,24.7,968,1130,B12
